Legend:
[1] = target: chimeric secretory component (CSC) of the polymeric immunoglobulin receptor (rabbit (domain 1) and human (domains 2 to 5))
[2] = target: receptor binding domain (RBD) of the SARS COV-2 spike protein (amino acids 332-532) (SARS-COV-2) (UniProt P0DTC2)

chimeric secretory component (CSC) of the polymeric immunoglobulin receptor (rabbit (domain 1) and human (domains 2 to 5)), sequence (P01833 other isoform, or with tags, fused parts or gaps mutant): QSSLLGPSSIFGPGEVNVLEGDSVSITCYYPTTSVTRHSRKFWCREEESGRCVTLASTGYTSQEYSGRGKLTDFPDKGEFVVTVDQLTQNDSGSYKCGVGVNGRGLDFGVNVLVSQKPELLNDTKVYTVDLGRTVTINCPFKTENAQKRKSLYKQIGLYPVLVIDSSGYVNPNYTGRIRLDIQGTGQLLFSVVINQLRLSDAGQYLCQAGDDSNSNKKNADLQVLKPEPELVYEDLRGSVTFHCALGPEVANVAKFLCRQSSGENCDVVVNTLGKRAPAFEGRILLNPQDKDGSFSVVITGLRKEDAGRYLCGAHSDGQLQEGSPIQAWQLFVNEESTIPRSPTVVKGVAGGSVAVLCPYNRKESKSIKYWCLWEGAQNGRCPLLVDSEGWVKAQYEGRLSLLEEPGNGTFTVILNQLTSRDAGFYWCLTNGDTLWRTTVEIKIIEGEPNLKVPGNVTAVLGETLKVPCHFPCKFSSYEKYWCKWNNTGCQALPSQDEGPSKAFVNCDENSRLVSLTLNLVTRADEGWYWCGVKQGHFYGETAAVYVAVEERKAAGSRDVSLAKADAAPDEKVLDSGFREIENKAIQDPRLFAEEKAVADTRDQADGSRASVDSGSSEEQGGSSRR

CB6-IgG (SARS-COV-2 specific monoclonal antibody CB6, IgG form)
limit of detection [1]: > 100 µg/mL
limit of detection [2]: 5 µg/mL

From US20240288440A1
